# From the DeepSol protein solubility set
# Assay: soluble on expression in E. coli; label from the status in PepcDB or PDB records
row,Sequence,soluble on expression in E. coli
1,MTGVDPTIVKIHEIQGTGTASPLVNNVVTIEAIVVGDFQDGDGDISRNLRGFYVQEEDADVDGNVATSEGIFIFENGNFITDVNVGDKVQITGTVDEFFGETQIDTITNITVISSGNTLPTAANITLPTAGTTESQGGTPQPDLEAFEGMLVKFTDTLTITEMFNLDRFNEIKLSQGGRPQQFTQFNDANVAGYGAYREEIGARTITYDDGLSVQNAEISNLDGFGSSFSTASDIRMGDTINNLTGVLSYQWAGNASSGATWRVRSAVDGTNQFTKVNDRPVTPENVGGSLKVTGFNVLLEHHHHHH,soluble
2,SSGLSESKQTHVHLRNVDAATLQIIITYAYTGNLAMNDSTVEQLYETACFLQVEDVLQRCREYLIKKINAENCVRLLSFADLFSCEELKQSAKRMVEHKFTAVYHQDAFMQLSHDLLIDILSSDNLNVEKEETVREAAMLWLEYNTESRSQYLSSVLSQIRIDALSEVTQRAWFQGLPPNDKSVVVQGLYKSMPKFFKPRLGMTKEEMMIFIEASSENPCSLYSSVCYSPQAEKVYKLCSPPADLHKVGTRCNS,soluble
3,MTEHNHDSQLEINNEEELLTLFDEEGNEVLYRKVLEFYHPEFKKEYVILAEEGAQSDEDDMIELVPMINEPDESGDGGKLVPIETDEEWDMIEEVVNTEMEELEHHHHHH,not soluble
4,MRTNVPDQQSTVQKLLDENSRLIDIIQEYLNQSRADEAIKHQQLLHRNLLHLSNLADPFLLSQLKDDGTAAAALPDPNQQQPQPGASGPPAPHLQQQQPQHSPQQGHPHPQQGLPAAHHRQQMMPPQAAPSPGGPMQPPHGFAPPPMGGGVPPEMMNHQAYQAQMRQQQQQPNGQAPPPVYPPFGQPAPQMSGQRMPYPYPPQGMPGYPGGPPPPPHGYEGYPPPGAQPGYMR,soluble
5,MKIMCKQEYYNQVVQYAESIKDTSLQNCMERLEAWEKNPDRPCEIELYHDWAPYSFGFTQRYPDGSRGIVGGLLYHGSPDESFAVQLTPFKGWQIHT,not soluble
6,MRATAIKIFSLSSALALLLHGCLSINLKQMLPEIRTYDLNASSFEITQCAKPLTEVRLISILSADLFNTKEIVFKAKDGQITHGKHQKWIDLPRNMLKTMFMQEAQKACLGVALPPYGAGAPTYAVRFTILSFSLLEKENSTYRAEFALGYDISVKGDSHSGVIIKHENISSLENKTTKTSKNGNQDFQESAIQSLQHVSVQAIQEAVSLIKKAIEAQSVSPLKK,not soluble
7,MGSDKIHHHHHHNKESTTECQTIDFSTLFDGQPEKIPLKEWAKSIHFVQLETNDSILIGNIRATILHKDKILVHHNNLSLFDLSGKFICNIGSKGGGPTEYSGINNAWTDDEGIHIFDIDNKIKTYNWNGKWIKTEPIPESNIKEVFPLASGNNIKAGYIQNITGNEPHKIYLFKDSTILAKIPYGKSFQKGEMTMVFYNECYPFHADGRTFFKEMFNDTIFSIDNQYQPIPRWYIELGKYKIAEDARYTLTDPRKSVFDNAATLTPIGKWDNKLFFSARANKQNYLFYYDLKEKKSNSIQISYPENSFAIPEEHSFIPKCMSDDGKYLISYEIQENDENPVIILAEK,not soluble
8,MSLTIEDNHGTEGISLPIEGVAATDNRAFELLDRWGVELVAAPLQLVPFTVTGYTEEGGVANLGSHREPDLEALAAAQPSLIINGQRFAQYYDDIIALNPDATVVELDPRDGEPLDQELIRQAETLGEIFGEEEDAAKIVADFESALERAKTAYAAISDQTVMAVNVSGGNIGYIAPSVGRTYGPIFDLVGLTPALEVGNASSDHEGDDINVEAIAAANPDLILVMDRDGGTSTRNEADYVPAEQIVSDNEALANVKAVTDGYVYYAPADTYTNENIITYTEILNGMADMFEKAAQEGHHHHHH,soluble
9,MNQTAAFSEVEMSIVVPKESDIKDVSQLTSVQAPTKVDKNNIEILMSALKKDKKVDVKVDDVASYQEAYDNLKSGKSKAMVLSGSYASLLESVDSNFASNLKTIYTYKIKKKNSNSANPVDSKVFNIYISGIDTYGPISTVSRSDVNIIMTVNMNTHKILLTTTPRDAYVKIPGGGADQYDKLTHAGIYGVETSEQTLEDLYGIKIDYYARINFTSFLKLIDQLGGVTVHNDQAFTQGKFDFPVGDIQMNSEQALGFVRERYNLDGGDNDRGKNQEKVISAILNKLASLKSVSNFTSIVNNLQDSVQTNMSLDTINALANTQLDSGSKFTVTSQAVTGTGSTGQLISYAMPNSSLYMMKLDNSSVASASQAIKNLMEEKLEHHHHHH,soluble
10,MSSEERSRQPSTVSTFDLEPNPFEQSFASSKKALSLPGTISHPSLPKELSRNNSTSTITQHSQRSTHSLNSIPEENGNSTVTDNSNHNDVKKDSPSFLPGQQRPTIISPPILTPGGSKRLPPLLLSPSILYQANSTTNPSQNSHSVSVSNSNPSAIGVSSTSGSLYPNSSSPSGTSLIRQPRNSNVTTSNSGNGFPTNDSQMPGFLLNLSKSGLTPNESNIRTGLTPGILTQSYNYPVLPSINKNTITGSKNVNKSVTVNGSIENHPHVNIMHPTVNGTPLTPGLSSLLNLPSTGVLANPVFKSTPTTNTTDGTVNNSISNSNFSPNTSTKAAVKMDNPAEFNAIEHSAHNHKENENLTTQIENNDQFNNKTRKRKRRMSSTSSTSKASRKNSISRKNSAVTTAPAQKDDVENNKISNNVTLDENEEQERKRKEFLERNRVAASKFRKRKKEYIKKIENDLQFYESEYDDLTQVIGKLCGIIPSSSSNSQFNVNVSTPSSSSPPSTSLIALLESSISRSDYSSAMSVLSNMKQLICETNFYRRGGKNPRDDMDGQEDSFNKDTNVVKSENAGYPSVNSRPIILDKKYSLNSGANISKSNTTTNNVGNSAQNIINSCYSVTNPLVINANSDTHDTNKHDVLSTLPHNN,soluble
11,MLDEKASEEEIKAMFLMLSGGLKSQPGEDEKATAVAYLFSLDGLSRWAIKTATRDVMKGKAEGLSTTFMPASADLLLYCEKLEDDIRTTVKGIFTSLDRPEIKPKGEPISAEKWDKLMQMLEKPKIGLNPFQ,not soluble
12,QDSTSDLIPAPPLSKVPLQQNFQDNQFHGKWYVVGLAGNRILRDDQHPMNMYATIYELKEDKSYNVTSVISSHKKCEYTIATFVPGSQPGEFTLGNIKSYGDKTSYLVRVVSTDYNQYAVVFFKLAEDNAEFFAITIYGRTKELASELKENFIRFSKSLGLPENHIVFPVPIDQCIDG,soluble
13,MISPSKKRTILSSKNINQKPRAVVKGNELRSPSKRRSQIDTDYALRRSPIKTIQISKAAQFMLYEETAEERNIAVHRHNEIYNNNNSVSNENNPSQVKENLSPAKICPYERAFLREGGRIALKDLSVDEFKGYIQDPLTDETIPLTLPLGDKKISLPSFITPPRNSKISIFFTSKHQGQNPETKISRSTDDVSEKKVVRKLSFHVYEDE,not soluble
14,MGSDKIHHHHHHMEHIEKLNAVLKHIKTSFVGKDEIIDLLGISLIARENAFLLGPPGTAKSAIIRALSACISDGKNFEYLLTRFTEPGELFGPFDIRKLKEGDLVTNTEGMMPEASMVFLDEIFNANSAILNSLLTALNERIFRRGKETKKLPALMFIGASNVLPEDESLNALLDRFLIRARCDYVDTDLLEEVLVAGWNLETRNQNQKPAIAPAEIIELQQYAKQVDVSTVRRQYVDLIHNLRNTGIKISDRRAVKIQNLLAASAVMSNRKEVIPSDLWVLKHVWDTEEQIEILEGIINTIIEKDTNPLAHPQAQYNKTPNAEELIKEIIQLTEKWESGNLSFEEQNVVKDKLRYLQTRSNWIKNNEHKLHIQEKIESLWHKMLQTI,not soluble
15,MAHHHHHHMAALKNKIHRIGKRKGATLKDVSAWRWIKTAARHFKQEGKIFVPNCTEIMKSSHGRERAPQNPDWYYIRCAAVLRAIYLRPGVGYGGLSKRFGNKKNYGSRPEHTVTSSTGPLHWACKSLTKLGLVEPGAQSGQRLTRKGHKFADSLAFQVQIRKFGAST,soluble
16,GGIYGIGLDITELKRIASMAGRQKRFAERILTRSELDQYYELSEKRKNEFLAGRFAAKEAFSKAFGTGIGRQLSFQDIEIRKDQNGKPYIICTKLSPAAVHVSITHTKEYAAAQVVIERLSS,soluble
